Assay [1] addresses T1, cynomolgus monkey (Macaca fascicularis) ROR2, full length, on CHO cells (cynomolgus monkey (Macaca fascicularis), UniProt Q01974 34-943 (human entry)).
T1 construct: also called ROR2mf; CHO-mfROR2
T1 chain: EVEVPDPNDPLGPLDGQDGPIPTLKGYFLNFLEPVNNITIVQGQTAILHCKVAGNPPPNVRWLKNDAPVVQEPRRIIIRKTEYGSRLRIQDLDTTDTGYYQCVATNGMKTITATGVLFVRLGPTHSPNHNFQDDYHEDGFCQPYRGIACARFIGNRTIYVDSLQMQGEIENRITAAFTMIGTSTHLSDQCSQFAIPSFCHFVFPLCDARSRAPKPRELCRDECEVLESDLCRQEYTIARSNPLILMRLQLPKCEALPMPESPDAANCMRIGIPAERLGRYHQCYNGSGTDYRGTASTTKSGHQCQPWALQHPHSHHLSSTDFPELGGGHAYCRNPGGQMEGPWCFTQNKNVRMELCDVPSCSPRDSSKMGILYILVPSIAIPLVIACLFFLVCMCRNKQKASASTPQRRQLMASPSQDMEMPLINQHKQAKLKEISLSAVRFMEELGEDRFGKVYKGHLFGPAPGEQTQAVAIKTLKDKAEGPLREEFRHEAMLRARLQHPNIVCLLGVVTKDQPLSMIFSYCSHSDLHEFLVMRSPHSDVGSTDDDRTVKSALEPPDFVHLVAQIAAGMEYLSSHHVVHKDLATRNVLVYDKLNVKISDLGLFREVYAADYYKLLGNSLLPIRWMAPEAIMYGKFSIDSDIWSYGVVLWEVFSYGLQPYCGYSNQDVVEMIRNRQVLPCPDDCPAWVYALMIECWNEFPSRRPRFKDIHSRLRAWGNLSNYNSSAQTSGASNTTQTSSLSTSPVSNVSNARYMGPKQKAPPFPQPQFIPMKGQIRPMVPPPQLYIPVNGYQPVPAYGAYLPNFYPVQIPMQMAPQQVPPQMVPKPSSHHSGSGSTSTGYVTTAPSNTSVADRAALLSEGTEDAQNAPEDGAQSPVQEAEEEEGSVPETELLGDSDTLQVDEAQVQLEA
As to the kind of experiment: flow cytometry on CHO cells expressing cynomolgus monkey ROR2. How it is done: Next, binding of bispecific CD3×ROR2 antibodies and monospecific ROR2 antibodies to CHO cells expressing human or cynomolgus monkey ROR2 was determined, using 5×10⁴ transfected cells/well and an antibody concentration range from 0.01-10 μg/mL.

Assay [2] addresses T2, cynomolgus monkey ROR2 in which threonine at position 322 is replaced by methionine (ROR2mf-T322M) (cynomolgus monkey (Macaca fascicularis), UniProt Q01974 34-943 (human entry)).
T2 construct: also called RORmf-T322M
Put plainly: flow cytometry on CHO cells expressing ROR2mf-T322M. On the technique in general: A flow cytometer gives signals particle by particle.

The target in assay [3] is T3, human (Homo sapiens) ROR2, full length, on cells (human, UniProt Q01974 34-943).
T3 construct: also called human ROR2; CHO-ROR2
T3 sequence (Q01974 34-943 limits assumed): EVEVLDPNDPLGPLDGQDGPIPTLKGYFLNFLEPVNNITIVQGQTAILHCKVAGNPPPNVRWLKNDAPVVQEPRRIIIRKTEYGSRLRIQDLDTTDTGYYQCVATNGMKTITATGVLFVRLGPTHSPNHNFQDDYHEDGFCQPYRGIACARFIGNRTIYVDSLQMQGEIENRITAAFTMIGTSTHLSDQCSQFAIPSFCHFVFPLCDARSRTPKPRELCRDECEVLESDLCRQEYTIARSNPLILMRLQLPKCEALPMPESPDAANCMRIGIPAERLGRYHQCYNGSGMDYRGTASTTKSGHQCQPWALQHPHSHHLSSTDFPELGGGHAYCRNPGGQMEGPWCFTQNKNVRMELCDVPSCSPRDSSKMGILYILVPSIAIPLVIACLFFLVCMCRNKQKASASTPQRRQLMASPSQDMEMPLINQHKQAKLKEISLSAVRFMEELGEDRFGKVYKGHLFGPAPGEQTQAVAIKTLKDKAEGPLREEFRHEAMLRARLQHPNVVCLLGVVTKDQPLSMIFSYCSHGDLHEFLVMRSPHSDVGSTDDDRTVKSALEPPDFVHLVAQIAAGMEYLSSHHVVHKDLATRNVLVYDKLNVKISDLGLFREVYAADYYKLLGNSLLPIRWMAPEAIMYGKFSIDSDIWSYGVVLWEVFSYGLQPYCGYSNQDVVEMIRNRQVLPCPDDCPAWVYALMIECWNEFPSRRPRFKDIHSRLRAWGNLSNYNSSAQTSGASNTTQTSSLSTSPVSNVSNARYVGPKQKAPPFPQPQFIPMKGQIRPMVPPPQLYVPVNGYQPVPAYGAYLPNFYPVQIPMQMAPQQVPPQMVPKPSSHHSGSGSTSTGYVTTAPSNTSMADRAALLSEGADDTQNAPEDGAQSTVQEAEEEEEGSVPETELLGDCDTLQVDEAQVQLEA
Put plainly: flow cytometry on CHO cells expressing human ROR2. On the procedure:
Cells (1×10⁵ cells/well) were incubated in polystyrene 96-well round-bottom plates (Greiner bio-one, cat. no. 650180) with serial dilutions of antibodies (ranging from 0.01 to 10 μg/mL in 3- or 4-fold dilution steps) in 100 μL PBS/0.1% BSA/0.02% azide (FACS buffer) at 4° C. for 30-60 min. Experiments were performed in technical duplicate. After washing twice in FACS buffer, cells were incubated in 50 μL secondary antibody (R-Phycoerythrin [PE]-conjugated goat-anti-human IgG F(ab′)₂; diluted 1:200 in FACS buffer; Jackson ImmunoResearch Laboratories, Inc., West Grove, PA, cat. no. 109-116-098) at 4° C. for 30 min. Cells were washed twice in FACS buffer, re-suspended in 30 μL FACS buffer containing Topro-3 (1:10,000 dilution) and analyzed on an iQue Screener (Intellicyt Corporation, USA). Binding curves were analyzed using non-linear regression (sigmoidal dose-response with variable slope) using GraphPad Prism V7.02 software (GraphPad Software, San Diego, CA, USA).

The target of assay [4] is T3, human (Homo sapiens) ROR2, full length, …. Put plainly: flow cytometry on ROR2-expressing tumor cell lines.
For assay [5], the target named is T4, his-tagged ROR2 extracellular domain (ROR2-ECD, G&P Biosciences, cat. no. FCL0192) (human, UniProt Q01974 34-403).
T4 construct: Bought protein; also called human ROR2-ECD; recombinant human ROR2-ECD; not shown: his tag
T4 sequence (Q01974 34-403): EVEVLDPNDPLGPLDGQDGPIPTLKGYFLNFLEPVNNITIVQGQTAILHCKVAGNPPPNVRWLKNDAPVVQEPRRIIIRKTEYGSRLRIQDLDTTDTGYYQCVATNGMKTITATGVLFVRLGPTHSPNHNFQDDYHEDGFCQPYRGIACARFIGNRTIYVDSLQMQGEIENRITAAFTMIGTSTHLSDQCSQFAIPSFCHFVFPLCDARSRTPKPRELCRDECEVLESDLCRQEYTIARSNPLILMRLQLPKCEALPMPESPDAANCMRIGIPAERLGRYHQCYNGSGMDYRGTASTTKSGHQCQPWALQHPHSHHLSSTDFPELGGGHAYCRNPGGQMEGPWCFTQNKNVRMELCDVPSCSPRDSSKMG
As to the kind of experiment: BLI (Octet), antibody on anti-human IgG Fc sensor, ROR2-ECD 1.56-100 nM as analyte. A general note: BLI is a label-free optical method that tracks binding on a fibre tip over time.

The target of assay [6] is T3, human (Homo sapiens) ROR2, full length, …. Put plainly: cell-based or functional assay.

B1: bsIgG1-huCD3-FEAL×ROR2-A-HC4LC3-FEAR (bispecific antibody)
heavy 1: not shown
light 1: not shown
heavy 2: EVQLLESGGGLVQPGGSLRLSCTVSGFSLSSYSMSWVRQAPGKGLEWIGVIYVNSKTWYANWAKGRFTISKDNSKNTVYLQMNSLRAEDTATYYCARGDAGYTTNSWLWGQGTLVTVSSASTKGPSVFPLAPSSKSTSGGTAALGCLVKDYFPEPVTVSWNSGALTSGVHTFPAVLQSSGLYSLSSVVTVPSSSLGTQTYICNVNHKPSNTKVDKRVEPKSCDKTHTCPPCPAPEFEGGPSVFLFPPKPKDTLMISRTPEVTCVVVAVSHEDPEVKFNWYVDGVEVHNAKTKPREEQYNSTYRVVSVLTVLHQDWLNGKEYKCKVSNKALPAPIEKTISKAKGQPREPQVYTLPPSREEMTKNQVSLTCLVKGFYPSDIAVEWESNGQPENNYKTTPPVLDSDGSFFLYSRLTVDKSRWQQGNVFSCSVMHEALHNHYTQKSLSLSPGK
light 2: AFELTQSPSSLSASVGDRVTITCQASESIDNYLSWYQQKPGKAPKLLIYQAFKLASGVPSRFRGSGSGTDFTLTISSLQPEDFATYYCQSYSGISTTAFGGGTKVEIKRTVAAPSVFIFPPSDEQLKSGTASVVCLLNNFYPREAKVQWKVDNALQSGNSQESVTEQDSKDSTYSLSSTLTLSKADYEKHKVYACEVTHQGLSSPVTKSFNRGEC
For B1, the binding result in assay [1], in assay [2] and in assay [3] was “binds” each time.

B2: bsIgG1-huCD3-H101G-FEAL×ROR2-A-HC4LC3-FEAR (bispecific antibody)
heavy 1: not shown
light 1: not shown
heavy 2: B1 heavy 2
light 2: B1 light 2
On to B2, for which the binding result in assay [2] and in assay [3] was “binds” throughout.

B3: bsIgG1-huCD3-H101G-FEAL×b12-FEAR (bispecific antibody)
heavy 1: not shown
light: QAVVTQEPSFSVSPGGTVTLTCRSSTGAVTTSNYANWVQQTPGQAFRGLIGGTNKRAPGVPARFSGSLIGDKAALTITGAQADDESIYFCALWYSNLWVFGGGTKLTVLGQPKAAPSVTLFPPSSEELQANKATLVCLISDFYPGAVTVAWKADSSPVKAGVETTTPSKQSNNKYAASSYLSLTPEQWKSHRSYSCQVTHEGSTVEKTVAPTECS
heavy 2: QVQLVQSGAEVKKPGASVKVSCQASGYRFSNFVIHWVRQAPGQRFEWMGWINPYNGNKEFSAKFQDRVTFTADTSANTAYMELRSLRSADTAVYYCARVGPYSWDDSPQDNYYMDVWGKGTTVIVSSASTKGPSVFPLAPSSKSTSGGTAALGCLVKDYFPEPVTVSWNSGALTSGVHTFPAVLQSSGLYSLSSVVTVPSSSLGTQTYICNVNHKPSNTKVDKRVEPKSCDKTHTCPPCPAPEFEGGPSVFLFPPKPKDTLMISRTPEVTCVVVAVSHEDPEVKFNWYVDGVEVHNAKTKPREEQYNSTYRVVSVLTVLHQDWLNGKEYKCKVSNKALPAPIEKTISKAKGQPREPQVYTLPPSREEMTKNQVSLTCLVKGFYPSDIAVEWESNGQPENNYKTTPPVLDSDGSFFLYSRLTVDKSRWQQGNVFSCSVMHEALHNHYTQKSLSLSPGK
VL: EIVLTQSPGTLSLSPGERATFSCRSSHSIRSRRVAWYQHKPGQAPRLVIHGVSNRASGISDRFSGSGSGTDFTLTITRVEPEDFALYYCQVYGASSYTFGQGTKLERK
notes: Control bispecific; also called bsIgG1-huCD3-H1010G-FEAL×b12-FEAR
For B3, the binding result in assay [4] is on record as “no binding (tested: 0.014-30 µg/mL)”.

B4: chIgG1-ROR2-A-FEAR (antibody, V domains shown)
VH: QSVEESGGRLVTPGTPLTLTCTVSGFSLSSYSMSWVRQAPGKGLEWIGVIYVNSKTWYANWAKGRFTISKTSTTVDLKITSPTTEDTATYFCARGDAGYTTNSWLWGPGTLVTVSS
VL: AFELTQTPASVSEPVGGTVTIKCQASESIDNYCSWYQQKPGQPPKLLIYQAFKLASGVPSRFRGSGSGTQFTLTISDLESDDAATYYCQSYSGISTTAFGGGTEVVVKR
notes: Full-length IgG1 with L234F, L235E, D265A, K409R; also called chIgG1-ROR2-A (with the Fc mutations FEAR)
Take B4: the binding result in assay [1] is recorded as “binds”. The binding result in assay [2] is on record as “binds”. For the same molecule, in assay [5], the Kd was 1.1 nM, the koff came out at 0.00079 s⁻¹ and the kon worked out at 720000 M⁻¹ s⁻¹.

B5: bsIgG1-huCD3-FEAL×chROR2-A-FEAR (bispecific antibody)
heavy 1: not shown
light 1: not shown
heavy 2: QSVEESGGRLVTPGTPLTLTCTVSGFSLSSYSMSWVRQAPGKGLEWIGVIYVNSKTWYANWAKGRFTISKTSTTVDLKITSPTTEDTATYFCARGDAGYTTNSWLWGPGTLVTVSSASTKGPSVFPLAPSSKSTSGGTAALGCLVKDYFPEPVTVSWNSGALTSGVHTFPAVLQSSGLYSLSSVVTVPSSSLGTQTYICNVNHKPSNTKVDKRVEPKSCDKTHTCPPCPAPEFEGGPSVFLFPPKPKDTLMISRTPEVTCVVVAVSHEDPEVKFNWYVDGVEVHNAKTKPREEQYNSTYRVVSVLTVLHQDWLNGKEYKCKVSNKALPAPIEKTISKAKGQPREPQVYTLPPSREEMTKNQVSLTCLVKGFYPSDIAVEWESNGQPENNYKTTPPVLDSDGSFFLYSRLTVDKSRWQQGNVFSCSVMHEALHNHYTQKSLSLSPGK
light 2: AFELTQTPASVSEPVGGTVTIKCQASESIDNYCSWYQQKPGQPPKLLIYQAFKLASGVPSRFRGSGSGTQFTLTISDLESDDAATYYCQSYSGISTTAFGGGTEVVVKRTVAAPSVFIFPPSDEQLKSGTASVVCLLNNFYPREAKVQWKVDNALQSGNSQESVTEQDSKDSTYSLSSTLTLSKADYEKHKVYACEVTHQGLSSPVTKSFNRGEC
Consider B5, for which the binding result in assay [1] is reported as “binds”. In addition, in assay [2], the binding result is reported as “binds”. Moreover, in assay [6], the “IC50 of T cell mediated cytotoxicity, 786-O cells, human T cells, E:T 8:1” value came to 3 ng/mL; the “IC50 of T cell mediated cytotoxicity, Hela cells, human T cells, E:T 8:1” value is 2 ng/mL; the “IC50 of T cell mediated cytotoxicity, LCLC-103H cells, human T cells, E:T 8:1” value was found to be 11 ng/mL; the “IC50 of T cell mediated cytotoxicity, NCI-H23 cells, human T cells, E:T 8:1” value was determined as 13 ng/mL. In assay [6], the “IC50 of T cell mediated cytotoxicity, NCI-H1650 cells, human T cells, E:T 8:1” value is 6 ng/mL and the “IC50 of T cell mediated cytotoxicity, ZR-75-1 cells, human T cells, E:T 8:1” value amounted to 3 ng/mL.

By Kd is commonly meant the constant that tells how readily two partners part at equilibrium. Broadly, the koff is the first-order rate constant of dissociation. The term kon denotes a measure of how fast the partners come together.

The values above are taken from US20230365714A1 (published 2023).
